Data: article PMC7857404

Target: SARS-CoV-2-3Q-FL spike (without 2P) (SARS-CoV-2) (UniProt P0DTC2)
Assay: cryo-EM structure

SARS-CoV-2-3Q-FL spike (without 2P) (from UniProt P0DTC2 14-1273) (natural protein)
stoichiometry N: 3
